From patent US20070292434A1 (VIB VZW, published 2007)

Key:
[1] = target: the molecule itself; experiment: non-reducing anti-FLAG Western blot of COS-1 supernatant (self-association)
Source text: Panel A: The plasmid encoding FNIII-FLAG-His was transfected in COS-1 cells. Supernatant was subjected to Western blot analysis under reducing (R) or non-reducing (NR) conditions with an anti-FLAG antibody.
Panel A: Plasmid pMET7 CRH2-FLAG-His was transiently transfected in COS-1 cells. Supernatant was subjected to Western blot analysis with an anti-FLAG antibody under reducing (R) and non-reducing (NR) conditions.
We next analyzed the ligand-independent clustering of the FNIII domains in more detail. Constructs were generated to produce secreted forms of the FNIII domains, either as a FLAG-His-, or as a SEAP-FLAG-tagged protein. When FNIII-FLAG-His was expressed in COS-1 cells and analyzed under non-reducing conditions, di-, tri- and even higher order clusters were observed (FIG. 2, panel A). This clustering is independent of protein concentration since transfection with smaller amounts of expression vector gave the same clustering pattern. To confirm this FNIII-clustering, we set up a His/SEAP co-precipitation experiment. In this assay, FNIII-SEAP-FLAG proteins were co-expressed with FNIII-FLAG-His, or with empty vector as a negative control. Supernatants were analyzed in a precipitation experiment with a Ni²⁺ affinity resin. Co-precipitated SEAP activity reflects interaction between the proteins. FIG. 2, panel B clearly confirms homotypic interaction of the FNIII domain.

[2] = target: the molecule itself; experiment: non-reducing anti-FLAG Western blot of secreted protein (self-association)
[3] = target: the molecule itself; experiment: non-reducing anti-FLAG Western blot of COS-1 lysates (self-association)
Source text: Panel A: Plasmids encoding (1) mLR ΔCRH1, ΔIg, ΔCRH2; (2) mLR ΔCRH1, ΔIg, ΔCRH2 cys672ser; (3) mLR ΔCRH1, ΔIg, ΔCRH2 cys751ser; (4) mLR ΔCRH1, ΔIg, ΔCRH2 cys672,751ser were transiently transfected in COS-1 cells. Transfected cells were lyzed in a reducing (R) or non-reducing (NR) loading buffer. Lysates were loaded on a SDS-PAGE gel, blotted to a nitro-cellulose membrane and subjected to Western blot with an anti-FLAG antibody.

Row | Protein | binding result [1] | binding result [2] | binding result [3]
1 | FNIII-FLAG-His (receptor, murine, UniProt P48356 637-839, looked up, not shown: small tags and cut ends, domain: FNIII domains; Secreted from COS-1 or Hek293T cells; runs as di-, tri- and higher order disulphide-linked clusters under non-reducing conditions; also called mLR FNIII-FLAG-His; soluble FNIII domains) PMRGPEFWRKMDGDVTKKERNVTLLWKPLTKNDSLCSVRRYVVKHRTAHNGTWSEDVGNRTNLTFLWTEPAHTVTVLAVNSLGASLVNFNLTFSWPMSKVSAVESLSAYPLSSSCVILSWTLSPDDYSLLYLVIEWKILNEDDGMKWLRIPSNVKKFYIHDNFIPIEKYQFSLYPVFMEGVGKPKIINGFTKDAIDKQQNDAG | binds |  | 
2 | FNIII-FLAG-His cys672ser (receptor, murine, UniProt P48356 637-839, looked up, not shown: small tags and cut ends, domain: FNIII domains) PMRGPEFWRKMDGDVTKKERNVTLLWKPLTKNDSLSSVRRYVVKHRTAHNGTWSEDVGNRTNLTFLWTEPAHTVTVLAVNSLGASLVNFNLTFSWPMSKVSAVESLSAYPLSSSCVILSWTLSPDDYSLLYLVIEWKILNEDDGMKWLRIPSNVKKFYIHDNFIPIEKYQFSLYPVFMEGVGKPKIINGFTKDAIDKQQNDAG |  | binds | 
3 | FNIII-FLAG-His cys751ser (receptor, murine, UniProt P48356 637-839, looked up, not shown: small tags and cut ends, domain: FNIII domains) PMRGPEFWRKMDGDVTKKERNVTLLWKPLTKNDSLCSVRRYVVKHRTAHNGTWSEDVGNRTNLTFLWTEPAHTVTVLAVNSLGASLVNFNLTFSWPMSKVSAVESLSAYPLSSSSVILSWTLSPDDYSLLYLVIEWKILNEDDGMKWLRIPSNVKKFYIHDNFIPIEKYQFSLYPVFMEGVGKPKIINGFTKDAIDKQQNDAG |  | binds | 
4 | CRH2-FLAG-His (receptor, murine, UniProt P48356 428-635, looked up, not shown: small tags and cut ends, domain: CRH2; Expressed as a reduction-sensitive oligomeric complex; also called mLR CRH2-FLAG-His; soluble CRH2 domain) VNINISCETDGYLTKMTCRWSPSTIQSLVGSTVQLRYHRRSLYCPDSPSIHPTSEPKNCVLQRDGFYECVFQPIFLLSGYTMWIRINHSLGSLDSPPTCVLPDSVVKPLPPSNVKAEITVNTGLLKVSWEKPVFPENNLQFQIRYGLSGKEIQWKTHEVFDAKSKSASLLVSDLCAVYVVQVRCRRLDGLGYWSNWSSPAYTLVMDVK | binds |  | 
5 | mLR ΔCRH1, ΔIg, ΔCRH2 cys751ser (receptor, murine, UniProt P48356 637-1162, looked up, not shown: small tags and cut ends, domain: FNIII, transmembrane and cytoplasmic domains (CRH1, Ig and CRH2 deleted); also called single cys751ser mutant receptor) PMRGPEFWRKMDGDVTKKERNVTLLWKPLTKNDSLCSVRRYVVKHRTAHNGTWSEDVGNRTNLTFLWTEPAHTVTVLAVNSLGASLVNFNLTFSWPMSKVSAVESLSAYPLSSSSVILSWTLSPDDYSLLYLVIEWKILNEDDGMKWLRIPSNVKKFYIHDNFIPIEKYQFSLYPVFMEGVGKPKIINGFTKDAIDKQQNDAGLYVIVPIIISSCVLLLGTLLISHQRMKKLFWDDVPNPKNCSWAQGLNFQKPETFEHLFTKHAESVIFGPLLLEPEPISEEISVDTAWKNKDEMVPAAMVSLLLTTPDPESSSICISDQCNSANFSGSQSTQVTCEDECQRQPSVKYATLVSNDKLVETDEEQGFIHSPVSNCISSNHSPLRQSFSSSSWETEAQTFFLLSDQQPTMISPQLSFSGLDELLELEGSFPEENHREKSVCYLGVTSVNRRESGVLLTGEAGILCTFPAQCLFSDIRILQERCSHFVENNLSLGTSGENFVPYMPQFQTCSTHSHKIMENKMCDLTV |  |  | binds
6 | mLR ΔCRH1, ΔIg, ΔCRH2 cys672ser (receptor, murine, UniProt P48356 637-1162, looked up, not shown: small tags and cut ends, domain: FNIII, transmembrane and cytoplasmic domains (CRH1, Ig and CRH2 deleted)) PMRGPEFWRKMDGDVTKKERNVTLLWKPLTKNDSLSSVRRYVVKHRTAHNGTWSEDVGNRTNLTFLWTEPAHTVTVLAVNSLGASLVNFNLTFSWPMSKVSAVESLSAYPLSSSCVILSWTLSPDDYSLLYLVIEWKILNEDDGMKWLRIPSNVKKFYIHDNFIPIEKYQFSLYPVFMEGVGKPKIINGFTKDAIDKQQNDAGLYVIVPIIISSCVLLLGTLLISHQRMKKLFWDDVPNPKNCSWAQGLNFQKPETFEHLFTKHAESVIFGPLLLEPEPISEEISVDTAWKNKDEMVPAAMVSLLLTTPDPESSSICISDQCNSANFSGSQSTQVTCEDECQRQPSVKYATLVSNDKLVETDEEQGFIHSPVSNCISSNHSPLRQSFSSSSWETEAQTFFLLSDQQPTMISPQLSFSGLDELLELEGSFPEENHREKSVCYLGVTSVNRRESGVLLTGEAGILCTFPAQCLFSDIRILQERCSHFVENNLSLGTSGENFVPYMPQFQTCSTHSHKIMENKMCDLTV |  |  | binds
